# B1: human recombinant glutamate-oxaloacetate transaminase (enzyme, UniProt P17174 1-413, looked up)
# chain: MAPPSVFAEVPQAQPVLVFKLTADFREDPDPRKVNLGVGAYRTDDCHPWVLPVVKKVEQKIANDNSLNHEYLPILGLAEFRSCASRLALGDDSPALKEKRVGGVQSLGGTGALRIGADFLARWYNGTNNKNTPVYVSSPTWENHNAVFSAAGFKDIRSYRYWDAEKRGLDLQGFLNDLENAPEFSIVVLHACAHNPTGIDPTPEQWKQIASVMKHRFLFPFFDSAYQGFASGNLERDAWAIRYFVSEGFEFFCAQSFSKNFGLYNERVGNLTVVGKEPESILQVLSQMEKIVRITWSNPPAQGARIVASTLSNPELFEEWTGNVKTMADRILTMRSELRARLEALKTPGTWNHITDQIGMFSFTGLNPKQVEYLVNEKHIYLLPSGRINVSGLTTKNLDYVATSIHEAVTKIQ
# Molecular target: the molecule itself
# Experiment: MALDI-TOF MS
protein,measurement,value
B1,stoichiometry N,2
